The experiment concerns the target EDE1-C10 IgG1. Briefly: shotgun alanine-scanning mutagenesis library binding screen. The following applies: read off a plot.
As to “wild-type DENV2 16681 prM/E expressed in HEK-293T cells G78A”, the percent of parent stood at 44 % WT.

Take “wild-type DENV2 16681 prM/E expressed in HEK-293T cells I113A”: the percent of parent is 73 % WT.

For “wild-type DENV2 16681 prM/E expressed in HEK-293T cells K310A”, the percent of parent was -4 % WT.

As to “wild-type DENV2 16681 prM/E expressed in HEK-293T cells L82A”, the percent of parent worked out at 57 % WT.

Turning to “wild-type DENV2 16681 prM/E expressed in HEK-293T cells M6A”, the percent of parent is 82 % WT.

In the case of “wild-type DENV2 16681 prM/E expressed in HEK-293T cells N153A”, the percent of parent worked out at 61 % WT.

Regarding “wild-type DENV2 16681 prM/E expressed in HEK-293T cells Q77A”, the percent of parent stood at 72 % WT.

Turning to “wild-type DENV2 16681 prM/E expressed in HEK-293T cells T155A”, the percent of parent worked out at 81 % WT.

Take “wild-type DENV2 16681 prM/E expressed in HEK-293T cells V97A”: the percent of parent came to 74 % WT.

In the case of “wild-type DENV2 16681 prM/E expressed in HEK-293T cells V308A”, the percent of parent was determined as 53 % WT.

As to “wild-type DENV2 16681 prM/E expressed in HEK-293T cells V309A”, the percent of parent was 57 % WT.

The values are drawn from paper PMC10586629.
